In the nanobody polyreactivity screen of Harvey et al. (2022):

Assay: yeast display, Sf9 membrane polyspecificity reagent, FACS + sequencing; frameworks hold sequencing errors
How it was run: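 In a synthetic yeast display library (Saccharomyces cerevisiae BJ5465), nanobody expression was induced with galactose for 36–48 hours. FACS gates were set low and high (top ~1%) using anti-HA fluorescence for expression and streptavidin fluorescence for binding of the Sf9 membrane reagent. Each polyreactivity label is drawn from the gate of origin.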

| Sequence | polyreactivity (PSR sort gate) |
| --- | --- |
| QVQLVESGGGLVQAGCSLRISCADSGRTFDEYAMGWYRQAPGKERELVAAISGSAGSTYYADSVKGRFTISRDNAKNSVYLQMNSLKPEDTAVYYCNAEVYGELYYWGQGTQVTVSS | low polyreactivity |
| QVQLVESGGGLVQAGCSLRLICAASGIIFRRYAMGWYRQAPGKERELVAAISSSGGSTYYADSVKGRFTISRDNAKNTVYLQMNSLKPEDTAVYYCNAVTSVQARPRNYYYWGQGTQVTVSS | high polyreactivity |
| QVQLVESGGGLVQAGCSLRLICAASGYIFVIYAMGWNRQAPGKERELVAAISSSGAGTYYADSVKGRFTISRDNAKNTVYLQMNSLKPEDTAVYYCAASESAVFDGYDYWGQGTQVTVSS | high polyreactivity |
| QVQLVESGGGLVQAGCSLRLIFAASGSIFIGYAMGWYRQAPGKERELVATITNGGSTYYADSVKGRFTISRDNAKNTVYLQMNSLKPEDSAVYYCNKPTYQWGQGTQVTVSS | high polyreactivity |
| QVQLVESGGGLVQAGCSLRLSCAASGFIFTTYAMGWYRQEPGKERELVAAISGRGGTTYYADSVKGRFTISLDTAKNTVYLQMNSLKPEDTAVYYCAADGYPGDDYWGQGTQVTVSS | high polyreactivity |
| QVQLVESGGGLVQAGCSLRLSCAASGFIFYWYAMVWKRQAPGKERELVAAISYDTGSTYYADSVKGRFTISRDKAKNSVYLPMNSLKPEDTAVYYCAADVYYKYYYWGQGSQVTVSS | high polyreactivity |
| QVQLVESGGGLVQAGCSLRLSCAASGFTFLNNAMGWSRQAPGKEREMVAAISQSGTSTYYADSVKGRFTISRDNAKNTVYLQMNSLKPEDTAVYYCAAEDTYPHDYSGGLEYDYWGQGTQVTVSS | low polyreactivity |
| QVQLVESGGGLVQAGCSLRLSCAASGFTFQHNAMGWYRQAPGKERELVAAISRGGSTNYADSVKGRFTISRDNAKNTVYLQMNSLKPEDTAVYYCAAYDWRVLWGYDYWGQGTQVTVSS | low polyreactivity |
| QVQLVESGGGLVQAGCSLRLSCAASGGIFSAYVMGWYRQAPGKERELVAAITRRGGATYYADSVKGRFTISRDNAKNTVYLQMNSLKPEDTAVYYCAADDQYYTEYYYWGQGTQVTVSS | high polyreactivity |
| QVQLVESGGGLVQAGCSLRLSCAASGIIFRSYAMGWYRQAPGKERELVAAITRSGGSTYADSVKGRFTISRDNAKNTVYLQMNSLKPEDTAVYYCAADRYSGWDYRRDYWGHGTQVTVSS | low polyreactivity |
| QVQLVESGGGLVQAGCSLRLSCAASGITFANYAMGWYRPAPGKVRELVAAINWSGGITYADSVKGRFTISRDNAKNTVYLQMHSLKPEDTAVYYCNPYYPDYAKYDYWGQGTQVTVSS | low polyreactivity |
| QVQLVESGGGLVQAGCSLRLSCAASGITFNFYAMGWYRQAPGKERELVAAITSSGASTNYADSVKGRFTISRDNAKNTVYLQMNSLYPEDTAVYYCNAQRSRHSLYPVNELYYWGQGTQVTVTS | low polyreactivity |
| QVQLVESGGGLVQAGCSLRLSCAASGLIFYTYAMGWYRQAPGKEREFVAAISRRGGSTYYADSVKGRFTISRDNAKNTVYLQMNSLKPEYTAVYYCNARYTYPRPYEEYYYWGQGTQVTVSS | high polyreactivity |
| QVQLVESGGGLVQAGCSLRLSCAASGLTFYHYTMGWYRQEPGKERDLVAAISRRGGYTYYADSVKGRFTISRDNAKNTVYLQMNSLKPEDTAVYYCAARALRYSRDFDYWGQGTQVTVSS | high polyreactivity |
| QVQLVESGGGLVQAGCSLRLSCAASGNSFPSYAMGWYRQAPGKARELVAAITTGGRTYYADSVKGRFTISRDNAKNTVYLQMNSLNPEDTAVYYCAADWGVRYPWYRYYYWGQATQVTVSS | high polyreactivity |
| QVQLVESGGGLVQAGCSLRLSCAASGRIFDNYVMGWYRQAPGQERELVAAISSGGGTYYADSVTGRFTISRDNAKNTVYLQMNSLKPEDTAVYYCAKRRVYDRSFGRYDYWGQGTQVTVSS | low polyreactivity |
| QVQLVESGGGLVQAGCSLRLSCAASGRIFGGYAMGWYRQAPGKERELVAAISSGGNTKYADSVKGRFTISRDNAKNTVYLQMNSLKPEDSAVYYCAAKFAQPDYRYDYWGQGTQVSVSS | high polyreactivity |
| QVQLVESGGGLVQAGCSLRLSCAASGRIFRYYAMGWYRQAPGKERELVAAISWSGGSTYYADSVKGRFTISRDNAKNTVYLQMNSLKPEYTAVYYCAARYSLKGGRYDYWGQGTQVTVSS | high polyreactivity |
| QVQLVESGGGLVQAGCSLRLSCAASGRIFYRNAMGWYRQAPGKERELVAGITRGGSTNYADSVKGRFTISRDNAKNNVYLQLNSLKPEDTAVYYCAKAIPAKFYSEAGYDYWGQGTQVTVSS | low polyreactivity |
| QVQLVESGGGLVQAGCSLRLSCAASGRIFYYYAMGWYRQAPGKERELVADITWSGGSTYYADSVKGRFTISRDNAKNTVYLQMNSLKPEDTAVYYCNAVYFNYLLEYDYWGQGTQVTVSS | high polyreactivity |
| QVQLVESGGGLVQAGCSLRLSCAASGRTDFYTMGWYRQAPGKEMELVAAITSTGRTYYADSVKGRFTISRDNAKNTVYLKMNSLKPEDTAVYFCAAVWRYKGLLLPSYYYWGQGTQVTVSS | high polyreactivity |
| QVQLVESGGGLVQAGCSLRLSCAASGRTIAYNAMGWYRQAPGKERELVAAISWSGGSTYYADSVKGRFTISRDNAKNTVYLQMNSMKPEDSAVYYCAKRFGQYRYPYDYWGQGNQVTVSS | high polyreactivity |

| Sequence | polyreactivity (PSR sort gate) |
| --- | --- |
| QVQLVESGGGLVQAGCSLRLSCAASGSIFAYYDMGWYRQAPGKERELVAAITTRDDDTYYADSVKGRFTISRDNAKNTVYLLLNSLKPEDTAVYYCAAAWWDYGNGKYDYWGQGTQVTVSS | low polyreactivity |
| QVQLVESGGGLVQAGCSLRLSCAASGSIFGYNDMGWNRQAPGKERELVATITWGGGRTRYADSVKGRFTISRDNAKNTVYLQINCLKPEDIAVYYCAADKRSYSYVRPPRNHEDYWGQGSQVTVSS | low polyreactivity |
| QVQLVESGGGLVQAGCSLRLSCAASGSIFSSYAMGWYRQAPGKERELVAAITGSGGSTDYADSVKGRFTISRDNAKNTVYLQMNSLKPEDTAVYYCAARPFWPGNSYYYRYYYWGQGTQVTVSS | low polyreactivity |
| QVQLVESGGGLVQAGCSLRLSCAASGSNFEENAMGWYRQAPGKESELVAAITIGGRTNYADSVKGRFTISRDNAKNTVYLQMNSLKPEDTAVYYCAADLSSNKYWRFWTRYYYWGQGTQVTVSS | low polyreactivity |
| QVQLVESGGGLVQAGCSLRLSCAASGSTFSYIAMGWYRQAPGKERELVAAITSGSSTNYADSVKGRFTISRDNAKYTVYLQMNSLKPEDTAVSYCAADGYQDKYYWLETWVGYWGHGTQVTVSS | low polyreactivity |
| QVQLVESGGGLVQAGCSLRLSCAASGSTIYTYTMGWYRQAPGKERELVAAISSSGGDTYYADSVKGRFTISRDNAKNTVYLQMNSLKPEDTAVYYWDALGAFPSLEFDYWGQGTHVTVSS | low polyreactivity |
| QVQLVESGGGLVQAGCSLRLSCAASGSTLFWYDMGWYRQAPGKERELVAAINWTGGSTYADSVKGRFTISRDNAKNTVYLQMNSLKPEDTAVYYCNADEYWASGYDPYDYWGQGTQVTVSS | low polyreactivity |
| QVQLVESGGGLVQAGCSLRLSCAASGSTSAYYVMGWNRQAPGKARELVAAIDFSGDSTYYADSVKGRFTISRDNAKNTVYLQMNSLKPEDTAVYYCAAELFYYSSLVTYEYWGQGTQVTVSS | high polyreactivity |
| QVQLVESGGGLVQAGCSLRLSCDASGSTFNWNAMGRYRQAPGKERELVAVIRRNGATTNYADSVKGRFTISRDNAKITVYLQMNSLKPEDTAVYYCAVAKWQPRRRKYYYWGQGTQVTVSS | high polyreactivity |
| QVQLVESGGGLVQAGCSLRLSSAASGFTFAYYVMGWYRQAPGKERELVAAISISGGRTYYADSVKGRFTISRDNEKNSVYLQMNRLKPEETAVYYCAADRRTDGHDYWGQGSQVTVSS | high polyreactivity |
| QVQLVESGGGLVQAGCSLRLSWAASGFTFTYYAMGWYRQEPGKERELVAAISDGGASTYYSDSVKGRFTISRDNAKNTVYLQMNSLKPEDTAVYYCAAETYWPWKDDYWGQGTQVTVSS | high polyreactivity |
| QVQLVESGGGLVQAGDSLRLSCAASGLTFSAYVMGWYRQAPGKERELVAATSRRGGTTYYADSVKGRFTISRDNAKITVYLQMNSLKPEDTAVYYCGTDYTSGSSYHVGYCGQGTQVTVSS | high polyreactivity |
| QVQLVESGGGLVQAGDSLRLSCAASGRIFKRNTMGWYRQAPGKERELVAAITRSGGSTYYADSVKGRFTISRDNAMNNVYLQMNSLKPEDTAVYYCNAPQYIGSVPIGDYWGLGTQVTVSS | high polyreactivity |
| QVQLVESGGGLVQAGDSLRLSCAASGSIFAWKTKGWYRQAPGTERELVAAISSGDSTYYADSVKGRFTISRDNAKNPVYLQMNSLKPEDTAVYYCAATYYQDRRRGYWGQGTQVTVSS | high polyreactivity |
| QVQLVESGGGLVQAGGCLRLSCAASGRISSSYAMGWYRLAAGKERELVAAITSRGGSTYYADSVKGRFTISRDNAKNTVYLQMNSLKPEDTAVYYCNAPGYLTYDHSYDYWGQGTQVTVSS | low polyreactivity |
| QVQLVESGGGLVQAGGCLRLSCAASGSTFPIYDMGWYRQAPGKERELVAAITYSGGSTNYADSVKRRFTNSRDNAKTSVYFQMNSLKPDDTAVYYCAARYTAYIQSGMGYWGQGSQVTVSS | high polyreactivity |
| QVQLVESGGGLVQAGGCLRLSCAASGSTFRGNAMGWYRQAPGKERELVAAITYSGGSTDYADSVKGRFTISRDNAKNTVYLQMNSLKPDDTAVYYCAARWYYYPLLYDYWGQGTQVTVSS | low polyreactivity |
| QVQLVESGGGLVQAGGCLRLSCAASGSTLDSNAMGWYREAPGKERELVAGIDWCGGSTYADSVKGRFTISRDNAKNTVELQMTSLKPEDTAVYYCAKVSRYVQPYSRFDYWGQGTQVTVSS | low polyreactivity |
| QVQLVESGGGLVQAGGCLRLSCADSGGTFGPYAMGWYIQAPGKEREFVARITGSGTRTYYADSVKGRFTISGDNAKNNVYLQMNSLNPEDTAVYYCATSHSRGSRGHDYWGQGTQVTVSS | low polyreactivity |
| QVQLVESGGGLVQAGGGLRLSFPASGRTFTVNAMGWSRQSPGKERELVATITYGGGSRYYADSVKGRFTISRDNAKNSVYLQMNSLKPEDTAVYYCAARSDNYHVYYFKRWGKYYSWGQGTQVTVSS | low polyreactivity |
| QVQLVESGGGLVQAGGIHRLSCASTGRTFPAYAMGWYRQAPGKERELVAAITINGGYTYYADSVKGRFTISRDNAKNSVYLQMKSLKPEDTAVYYCAAYYDSPSHGYWGQVTQVTVSS | low polyreactivity |
